Tested on: protein tyrosine kinase activity
Test: Protein tyrosine kinase ELISA on extracts of β-APP-transfected ES double-null cells mixed with PS-1-transfected DAMI cells
Assay type: cell-based
Conditions: 25 μg protein added, 0-20 min after mixing
Protocol: DAMI:ES cells: Equal numbers (0.5×10^6/ml) of β-APP 695 (Selkoe and Podlisny, 2002)-transfected ES double-null cells and PS-1 transfected DAMI cells were co-cultured at 37° C. for various times between 0-20 mins.
At several times between 0 and 20 min after mixing, an aliquot of each cell mixture was rapidly centrifuged, the culture medium was removed, and the cell pellet was suspended in 200 μl of extraction buffer (50 mM Tris, pH 8.0/150 mM NaCl/0.5% Nonidet-P40) containing protease inhibitors (1 mM 4-(2-aminoethyl) benzene sulfonyl fluoride hydrochloride (AEBSF)/1 μg/ml antipain/0.1 μg/ml pepstatin A/0.1 μg/ml leupeptin) and the phosphatase inhibitor sodium orthovanadate (0.1 mM). The mixture was sonicated with three bursts of 20 sec duration and then centrifuged. These extract supernatants were then used for Western blot and ELISA analyses as described below.
ELISAs Protein tyrosine kinase activity was measured by an Enzyme Linked Immunosorbent Assay (ELISA) using a tyrosine kinase assay kit (Upstate Biotechnology). A biotinylated substrate peptide containing tandem repeats of Poly (Glu4-Tyr) was incubated with supernatants of extracts of transfected cells mixed for different times ([…]) in the presence of non-radioactive ATP and a Mn^2+/Mg^2+ co-factor cocktail according to the manufacturer's protocols. […]

B1: N-terminal domain of PS-2 fused to FLAG: fusion protein with FLAG attached at the N-terminus of the PS-2 N-terminal domain (protein)
chain: MLTFMASDSEEEVCDERTSLMSAESPTPRSCQEGRQGPEDGENTAQWRSQENEEDGEEDPDRYVCSGVPGRPPGLEEELTLKYGAKH
modifications: left off: small tags and cut ends
notes: fusion protein with FLAG attached at the N-terminus of the PS-2 N-terminal domain
  transient increase in protein tyrosine kinase activity after cell mixing: very similar transient increases
Listed as FLAG-PS-2 N-terminal domain fusion peptide
  transient increase in protein tyrosine kinase activity after cell mixing: did not inhibit

From US10774121B2, “Methods and compositions for treating neurodegenerative disorders and Alzheimer's Disease and improving normal memory” (The Regents of the University of California, priority 2006, dated 2020)
